The source of these data is PMC3720670, “Function and X-Ray crystal structure of Escherichia coli YfdE” (PLoS ONE, 2013).

Series [1] addresses UctC (Acetobacter aceti strain 1023) (UniProt A9X6P9). Kind of series: SEC; analytical gel filtration, Superdex 200 Hi-load 16/60, 50 mM Tris-HCl pH 8.0, 100 mM KCl; apparent solution molecular weights from retention times.
Substrate in series [2]: CC(=O)SCCNC(=O)CCNC(=O)[C@H](O)C(C)(C)COP(=O)(O)OP(=O)(O)OC[C@H]1O[C@@H](n2cnc3c(N)ncnc32)[C@H](O)[C@@H]1OP(=O)(O)O
The series can be described thus: HPLC of oxalyl-CoA formation, Michaelis-Menten fit. The series is classed as biochemical, Escherichia coli. The conditions noted are these: 50 mM oxalate (subsaturating, value likely lower than true), 50 mM potassium phosphate, pH 6.7, parameter symbol, unit prefix and kcat unit not given, inferred.

Substrate in series [3]: CC(=O)SCCNC(=O)CCNC(=O)[C@H](O)C(C)(C)COP(=O)(O)OP(=O)(O)OC[C@H]1O[C@@H](n2cnc3c(N)ncnc32)[C@H](O)[C@@H]1OP(=O)(O)O
Kind of series: HPLC of oxalyl-CoA formation, Michaelis-Menten fit. The series is classed as biochemical, Escherichia coli. The note with it: 50 mM oxalate (subsaturating, value likely lower than true), 50 mM potassium phosphate, pH 6.7, parameter symbol, unit prefix and kcat unit not given, inferred. The source says:
HPLC of oxalyl-CoA formation, Michaelis-Menten fit on H6YfdE
The source holds these as a separate data set.

Series [4] deals with the molecule itself. The series can be described thus: SEC; analytical gel filtration, Superdex 200 Hi-load 16/60, 50 mM Tris-HCl pH 8.0, 100 mM KCl; apparent solution molecular weights from retention times. On the technique in general: Size exclusion chromatography separates by hydrodynamic size, large species first.

The term stoichiometry N denotes the number of molecules, sites or subunits per partner or assembly. For the molecule “UctC (from UniProt A9X6P9 1-389) (enzyme)”, the stoichiometry N in series [1] worked out at 2.

B1: YfdE (Escherichia coli K-12) (protein)
chain: MTNNESKGPFEGLLVIDMTHVLNGPFGTQLLCNMGARVIKVEPPGHGDDTRTFGPYVDGQSLYYSFINHGKESVVLDLKNDHDKSIFINMLKQADVLAENFRPGTMEKLGFSWETLQEINPRLIYASSSGFGHTGPLKDAPAYDTIIQAMSGIMMETGYPDAPPVRVGTSLADLCGGVYLFSGIVSALYGREKSQRGAHVDIAMFDATLSFLEHGLMAYIATGKSPQRLGNRHPYMAPFDVFNTQDKPITICCGNDKLFSALCQALELTELVNDPRFSSNILRVQNQAILKQYIERTLKTQAAEVWLARIHEVGVPVAPLLSVAEAIKLPQTQARNMLIEAGGIMMPGNPIKISGCADPHVMPGAATLDQHGEQIRQEFSS
notes: untagged full-length, recombinant in E. coli BL21(DE3), plasmid pJK566 (Arg232 repaired), only partially purified; dimer
Broadly, the Km is the concentration of substrate that gives half-maximal velocity. As usually defined, the kcat is the maximal rate divided by the concentration of active sites. Regarding B1, in series [2] (partially pure enzyme), the Km is on record as 17 µM and the kcat is 11 s⁻¹.

B2: YfdEH6 (Escherichia coli K-12) (protein)
chain: B1 chain
notes: full-length with C-terminal hexahistidine tag kept (stop codon converted to Ser), pJK594, E. coli C41(DE3)
As to B2, in series [2], the Km is given as 13 µM and the kcat is 6.9 s⁻¹.

B3: H6YfdE (Escherichia coli K-12) (protein)
chain: B1 chain
notes: full-length with N-terminal hexahistidine tag kept, pET28a (pJK593), E. coli C41(DE3); last residue Ser381; dimer
As to B3, in series [3], the Km was determined as 18 µM and the kcat came to 12 s⁻¹.

B4: YfdE fused to an N-terminal hexahistidine tag (H6YfdE) (enzyme, Escherichia coli, UniProt P76518 1-381, looked up)
chain: B1 chain
notes: YfdE, Escherichia coli; yfdE gene amplified from genomic DNA of a strain BW25113 derivative; last residue Ser381; Expressed from pET28a (NdeI/XhoI); The appendage and the first five to six residues are disordered in the crystal; also called acetyl-CoA:oxalate CoA-transferase; ACOCT; source: E. coli C41(DE3), purified (ammonium sulfate, metal-charged nitrilotriacetic acid column); not shown: His6, …
Consider B4, for which, in series [4], the “stoichiometry N” value worked out at 2.
